Each block holds one binder with its values, some of them ahead of it. Starred links: 1 amine or outer side, 2 acyl side, 3 side chain; linkers in the order of their positions; H or OH if unused. Non-standard residues stand in square brackets, D forms with d. Primed or numbered codes have the meaning given here. *: point of attachment. AC4Abu = α-carboxy-4-aminobutyric acid, O=C(C(CCN[*:1])C(=O)[*:3])[*:2]; Oic = O=C(O)[C@@H]1C[C@@H]2CCCC[C@@H]2N1; Phe(4-Cl) = N[C@@H](Cc1ccc(Cl)cc1)C(=O)O; dPhe(4-Cl) = N[C@H](Cc1ccc(Cl)cc1)C(=O)O; γGlu = O=C(O)[C@H](CCC(=O)[*:2])N[*:1]; d(β3hF) = N[C@@H](CC(=O)O)Cc1ccccc1; NMeR = CN[C@@H](CCCNC(=N)N)C(=O)O; Palmitoyl = CCCCCCCCCCCCCCCC(=O)*; αMeF = C[C@](N)(Cc1ccccc1)C(=O)O; β3hF = N[C@H](CC(=O)O)Cc1ccccc1; Cha = N[C@@H](CC1CCCCC1)C(=O)O; αMeP = C[C@@]1(C(=O)O)CCCN1; β3hP = O=C(O)C[C@@H]1CCCN1; Pip = O=C(O)[C@@H]1CCCCN1; Nle = CCCC[C@H](N)C(=O)O; Pip′ = not defined here; AEEA = NCCOCCOCC(=O)O; Aib = CC(C)(N)C(=O)O; Inp = O=C(O)C1CCNCC1; Nip = nipecotic acid
Experiments:
human APJ receptor = target: T1, human APJ receptor (human, UniProt P35414 1-380); experiment: cell-based or functional assay
T1 sequence (looked up): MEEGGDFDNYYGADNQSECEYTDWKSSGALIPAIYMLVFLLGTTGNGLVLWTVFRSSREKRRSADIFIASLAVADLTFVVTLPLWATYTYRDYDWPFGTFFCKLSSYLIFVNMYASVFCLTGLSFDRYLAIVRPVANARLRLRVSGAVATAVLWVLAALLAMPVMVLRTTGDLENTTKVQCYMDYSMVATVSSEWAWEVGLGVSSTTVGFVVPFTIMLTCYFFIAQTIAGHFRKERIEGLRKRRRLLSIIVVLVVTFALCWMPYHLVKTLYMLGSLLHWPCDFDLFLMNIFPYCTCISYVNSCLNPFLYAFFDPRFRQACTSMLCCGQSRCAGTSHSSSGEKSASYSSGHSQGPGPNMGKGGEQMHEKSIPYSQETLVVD

rat APJ receptor = target: T2, rat APJ receptor (rat, UniProt Q9JHG3 1-377); experiment: cell-based or functional assay
T2 sequence (looked up): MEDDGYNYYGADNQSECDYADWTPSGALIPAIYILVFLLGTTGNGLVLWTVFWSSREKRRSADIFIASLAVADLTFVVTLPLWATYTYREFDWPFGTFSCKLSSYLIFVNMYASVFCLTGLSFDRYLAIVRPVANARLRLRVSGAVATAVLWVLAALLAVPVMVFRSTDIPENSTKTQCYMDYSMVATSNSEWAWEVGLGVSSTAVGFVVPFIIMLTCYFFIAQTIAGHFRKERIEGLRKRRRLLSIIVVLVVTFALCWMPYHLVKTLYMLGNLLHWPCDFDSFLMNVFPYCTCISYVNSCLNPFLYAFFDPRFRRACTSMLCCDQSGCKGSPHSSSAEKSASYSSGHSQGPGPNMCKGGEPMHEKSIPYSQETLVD

Binder: Palmitoyl-[AC4Abu][AEEA][AEEA][dQ]RP[NMeR][Cha]SHKG[Pip][Nle][Nip][Phe(4-Cl)]-OH [SEQ ID NO: 588]
EC50 Human APJ Receptor (human APJ receptor): 1.52 nM | EC50 Rat APJ Receptor (rat APJ receptor): 6.37 nM

B5: SEQ ID NO: 611 (peptide)
peptide: Palmitoyl-[γGlu][AEEA][AEEA][dQ]RP[NMeR][Cha]SHKG[Oic][Nle][β3hP][αMeF]-OH
SMILES: CCCCCCCCCCCCCCCC(=O)N[C@@H](CCC(=O)NCCOCCOCC(=O)NCCOCCOCC(=O)N[C@H](CCC(N)=O)C(=O)N[C@@H](CCCNC(=N)N)C(=O)N1CCC[C@H]1C(=O)N(C)[C@@H](CCCNC(=N)N)C(=O)N[C@@H](CC1CCCCC1)C(=O)N[C@@H](CO)C(=O)N[C@@H](Cc1c[nH]cn1)C(=O)N[C@@H](CCCCN)C(=O)NCC(=O)N1[C@H](C(=O)N[C@@H](CCCC)C(=O)N2CCC[C@H]2CC(=O)N[C@@](C)(Cc2ccccc2)C(=O)O)C[C@@H]2CCCC[C@@H]21)C(=O)O
EC50 Human APJ Receptor (human APJ receptor): 0.722 nM | EC50 Rat APJ Receptor (rat APJ receptor): 1.57 nM

Binder: Palmitoyl-[AC4Abu][AEEA][AEEA][dQ]RP[NMeR][Cha]SHKG[Pip′][Nle][d(β3hF)]-OH [SEQ ID NO: 574]
EC50 Human APJ Receptor (human APJ receptor): 0.652 nM | EC50 Rat APJ Receptor (rat APJ receptor): 2.83 nM

B7: SEQ ID NO: 610 (peptide)
peptide: Palmitoyl-[γGlu][AEEA][AEEA][dQ]RP[NMeR][Cha]SHKG[Oic][Nle][αMeP][αMeF]-OH
SMILES: CCCCCCCCCCCCCCCC(=O)N[C@@H](CCC(=O)NCCOCCOCC(=O)NCCOCCOCC(=O)N[C@H](CCC(N)=O)C(=O)N[C@@H](CCCNC(=N)N)C(=O)N1CCC[C@H]1C(=O)N(C)[C@@H](CCCNC(=N)N)C(=O)N[C@@H](CC1CCCCC1)C(=O)N[C@@H](CO)C(=O)N[C@@H](Cc1c[nH]cn1)C(=O)N[C@@H](CCCCN)C(=O)NCC(=O)N1[C@H](C(=O)N[C@@H](CCCC)C(=O)N2CCC[C@@]2(C)C(=O)N[C@@](C)(Cc2ccccc2)C(=O)O)C[C@@H]2CCCC[C@@H]21)C(=O)O
EC50 Human APJ Receptor (human APJ receptor): 1.06 nM | EC50 Rat APJ Receptor (rat APJ receptor): 4.98 nM

B8: SEQ ID NO: 579 (peptide)
peptide: Palmitoyl-[AC4Abu][AEEA][AEEA][dQ]RP[NMeR][Cha]SHKG[Pip][Nle][β3hF]-OH
SMILES: CCCCCCCCCCCCCCCC(=O)NCCC(C(=O)O)C(=O)NCCOCCOCC(=O)NCCOCCOCC(=O)N[C@H](CCC(N)=O)C(=O)N[C@@H](CCCNC(=N)N)C(=O)N1CCC[C@H]1C(=O)N(C)[C@@H](CCCNC(=N)N)C(=O)N[C@@H](CC1CCCCC1)C(=O)N[C@@H](CO)C(=O)N[C@@H](Cc1c[nH]cn1)C(=O)N[C@@H](CCCCN)C(=O)NCC(=O)N1CCCC[C@H]1C(=O)N[C@@H](CCCC)C(=O)N[C@H](CC(=O)O)Cc1ccccc1
EC50 Human APJ Receptor (human APJ receptor): 0.831 nM | EC50 Rat APJ Receptor (rat APJ receptor): 2.5 nM

Binder: Palmitoyl-[γGlu][AEEA][AEEA][dQ]RP[NMeR][Cha]SHKG[Oic][Nle][Pip′][αMeF]-OH [SEQ ID NO: 609]
EC50 Human APJ Receptor (human APJ receptor): 1.25 nM | EC50 Rat APJ Receptor (rat APJ receptor): 2.49 nM

B9: SEQ ID NO: 581 (peptide)
peptide: Palmitoyl-[AC4Abu][AEEA][AEEA][dQ]RP[NMeR][Cha]SHKG[Pip][Aib][Phe(4-Cl)]-OH
SMILES: CCCCCCCCCCCCCCCC(=O)NCCC(C(=O)O)C(=O)NCCOCCOCC(=O)NCCOCCOCC(=O)N[C@H](CCC(N)=O)C(=O)N[C@@H](CCCNC(=N)N)C(=O)N1CCC[C@H]1C(=O)N(C)[C@@H](CCCNC(=N)N)C(=O)N[C@@H](CC1CCCCC1)C(=O)N[C@@H](CO)C(=O)N[C@@H](Cc1c[nH]cn1)C(=O)N[C@@H](CCCCN)C(=O)NCC(=O)N1CCCC[C@H]1C(=O)NC(C)(C)C(=O)N[C@@H](Cc1ccc(Cl)cc1)C(=O)O
EC50 Human APJ Receptor (human APJ receptor): 1.4 nM | EC50 Rat APJ Receptor (rat APJ receptor): 5.85 nM

The next lines start with the values.

EC50 Human APJ Receptor (human APJ receptor): 1.72 nM | EC50 Rat APJ Receptor (rat APJ receptor): 4.62 nM
Binder: Palmitoyl-[γGlu][AEEA][AEEA][dQ]RP[NMeR][Cha]SHKG[Oic][Nle][β3hP][dAMF]-OH [SEQ ID NO: 612]

EC50 Human APJ Receptor (human APJ receptor): 0.624 nM | EC50 Rat APJ Receptor (rat APJ receptor): 4.15 nM
B1: SEQ ID NO: 589 (peptide)
peptide: Palmitoyl-[AC4Abu][AEEA][AEEA]QRP[NMeR][Cha]SHKG[Pip][Nle][Inp][Phe(4-Cl)]-OH
SMILES: CCCCCCCCCCCCCCCC(=O)NCCC(C(=O)O)C(=O)NCCOCCOCC(=O)NCCOCCOCC(=O)N[C@@H](CCC(N)=O)C(=O)N[C@@H](CCCNC(=N)N)C(=O)N1CCC[C@H]1C(=O)N(C)[C@@H](CCCNC(=N)N)C(=O)N[C@@H](CC1CCCCC1)C(=O)N[C@@H](CO)C(=O)N[C@@H](Cc1c[nH]cn1)C(=O)N[C@@H](CCCCN)C(=O)NCC(=O)N1CCCC[C@H]1C(=O)N[C@@H](CCCC)C(=O)N1CCC(C(=O)N[C@@H](Cc2ccc(Cl)cc2)C(=O)O)CC1

EC50 Human APJ Receptor (human APJ receptor): 8.68 nM | EC50 Rat APJ Receptor (rat APJ receptor): 25.8 nM
B2: SEQ ID NO: 617 (peptide)
peptide: Palmitoyl-[γGlu][AEEA][AEEA][dQ]RP[NMeR][Cha]S[dH]KG[Oic][Nle][β3hP][d(β3hF)]-OH
SMILES: CCCCCCCCCCCCCCCC(=O)N[C@@H](CCC(=O)NCCOCCOCC(=O)NCCOCCOCC(=O)N[C@H](CCC(N)=O)C(=O)N[C@@H](CCCNC(=N)N)C(=O)N1CCC[C@H]1C(=O)N(C)[C@@H](CCCNC(=N)N)C(=O)N[C@@H](CC1CCCCC1)C(=O)N[C@@H](CO)C(=O)N[C@H](Cc1c[nH]cn1)C(=O)N[C@@H](CCCCN)C(=O)NCC(=O)N1[C@H](C(=O)N[C@@H](CCCC)C(=O)N2CCC[C@H]2CC(=O)N[C@@H](CC(=O)O)Cc2ccccc2)C[C@@H]2CCCC[C@@H]21)C(=O)O

EC50 Human APJ Receptor (human APJ receptor): 0.0956 nM | EC50 Rat APJ Receptor (rat APJ receptor): 0.55 nM
Binder: Palmitoyl-[γGlu][AEEA][AEEA][dQ]RP[NMeR][Cha]SHKG[Oic][Nle]P[dAMF]-OH [SEQ ID NO: 607]

EC50 Human APJ Receptor (human APJ receptor): 0.214 nM | EC50 Rat APJ Receptor (rat APJ receptor): 0.326 nM
B3: SEQ ID NO: 608 (peptide)
peptide: Palmitoyl-[γGlu][AEEA][AEEA][dQ]RP[NMeR][Cha]SHKG[Oic][Nle][Aib][αMeF]-OH
SMILES: CCCCCCCCCCCCCCCC(=O)N[C@@H](CCC(=O)NCCOCCOCC(=O)NCCOCCOCC(=O)N[C@H](CCC(N)=O)C(=O)N[C@@H](CCCNC(=N)N)C(=O)N1CCC[C@H]1C(=O)N(C)[C@@H](CCCNC(=N)N)C(=O)N[C@@H](CC1CCCCC1)C(=O)N[C@@H](CO)C(=O)N[C@@H](Cc1c[nH]cn1)C(=O)N[C@@H](CCCCN)C(=O)NCC(=O)N1[C@H](C(=O)N[C@@H](CCCC)C(=O)NC(C)(C)C(=O)N[C@@](C)(Cc2ccccc2)C(=O)O)C[C@@H]2CCCC[C@@H]21)C(=O)O

EC50 Human APJ Receptor (human APJ receptor): 5.48 nM | EC50 Rat APJ Receptor (rat APJ receptor): 25.6 nM
Binder: Palmitoyl-[γGlu][AEEA][AEEA][dQ]RP[NMeR][Cha]SHKG[Oic][Nle][Nip][dPhe(4-Cl)]-OH [SEQ ID NO: 602]

EC50 Human APJ Receptor (human APJ receptor): 2.96 nM | EC50 Rat APJ Receptor (rat APJ receptor): 32.3 nM
B4: SEQ ID NO: 603 (peptide)
peptide: Palmitoyl-[γGlu][AEEA][AEEA][dQ]RP[NMeR][Cha]SHKG[Oic][Nle][Inp][dPhe(4-Cl)]-OH
SMILES: CCCCCCCCCCCCCCCC(=O)N[C@@H](CCC(=O)NCCOCCOCC(=O)NCCOCCOCC(=O)N[C@H](CCC(N)=O)C(=O)N[C@@H](CCCNC(=N)N)C(=O)N1CCC[C@H]1C(=O)N(C)[C@@H](CCCNC(=N)N)C(=O)N[C@@H](CC1CCCCC1)C(=O)N[C@@H](CO)C(=O)N[C@@H](Cc1c[nH]cn1)C(=O)N[C@@H](CCCCN)C(=O)NCC(=O)N1[C@H](C(=O)N[C@@H](CCCC)C(=O)N2CCC(C(=O)N[C@H](Cc3ccc(Cl)cc3)C(=O)O)CC2)C[C@@H]2CCCC[C@@H]21)C(=O)O

EC50 Human APJ Receptor (human APJ receptor): 2.97 nM | EC50 Rat APJ Receptor (rat APJ receptor): 4.55 nM
Binder: Palmitoyl-[AC4Abu][AEEA][AEEA][dQ]RP[NMeR][Cha]SHKG[Pip′][Nle]P[d(β3hF)]-OH [SEQ ID NO: 568]

EC50 Human APJ Receptor (human APJ receptor): 0.423 nM | EC50 Rat APJ Receptor (rat APJ receptor): 0.512 nM
B6: SEQ ID NO: 604 (peptide)
peptide: Palmitoyl-[γGlu][AEEA][AEEA][dQ]RP[NMeR][Cha]SHKG[Oic][Nle][Aib][dPhe(4-Cl)]-OH
SMILES: CCCCCCCCCCCCCCCC(=O)N[C@@H](CCC(=O)NCCOCCOCC(=O)NCCOCCOCC(=O)N[C@H](CCC(N)=O)C(=O)N[C@@H](CCCNC(=N)N)C(=O)N1CCC[C@H]1C(=O)N(C)[C@@H](CCCNC(=N)N)C(=O)N[C@@H](CC1CCCCC1)C(=O)N[C@@H](CO)C(=O)N[C@@H](Cc1c[nH]cn1)C(=O)N[C@@H](CCCCN)C(=O)NCC(=O)N1[C@H](C(=O)N[C@@H](CCCC)C(=O)NC(C)(C)C(=O)N[C@H](Cc2ccc(Cl)cc2)C(=O)O)C[C@@H]2CCCC[C@@H]21)C(=O)O

— patent US10941182 (Amgen, dated 2021)
